B1: VAMP7(1–118) (domain or fragment, human, UniProt P51809 1-118, looked up)
chain: MAILFAVVARGTTILAKHAWCGGNFLEVTEQILAKIPSENNKLTYSHGNYLFHYICQDRIVYLCITDDDFERSRAFNFLNEIKKRFQTTYGSRAQTALPYAMNSEFSSVLAAQLKHHS

Experiments:
[1] = biological target: the molecule itself; assay: SEC-MALS
[2] = biological target: B1; assay: NMR titration

Binder | stoichiometry N [1] | binding result [2]
B1 | 2 | –
VAMP7(119–180) (domain or fragment, human, UniProt P51809 119-180, looked up) ENKGLDKVMETQAQVDELKGIMVRNIDLVAQRGERLELLIDKTENLVDSSVTFKTTSRNLAR | – | binds
